Experiment: label from the status in PepcDB records

Sequence	protein production
MKSADGLLHVAFTPSKATGKVLASELPEKVGKRSSVLYPASLKAGNDIGVPVQSVDTVLLQQALSAPVLSVASPSAVRAWLHLIQNEEQWSNYVACIGETTASAARRLGLKNVYYPEKPGLEGWVESIMEALGAHADSSNPSSRN	failed
DSRQRFKRQMVEQAAPWLLELSARTGLVTDLSSFDGESLEVLESAVPEVLRKRYPSNSRIVGQHASLFHSAMGKACLGALASAEVERLAEQEQVPAEARQQCLESQHLGFGQRTEGHWEYPVRLPFLIRAVALPLQAEGRVIGSIALHWPRDLACVEQVRNRHLWLLAETVERVQKDI	failed
MNNTQKKLKVLFIGESWHIHMIHSKGYDSFTSSKYEEGATWLLECLRKGGVDIDYMPAHTVQIAFPESIDELNRYDVIVISDIGSNTFLLQNETFYQLKIKPNALESIKEYVKNGGGLLMIGGYLSFMGIEAKANYKNTVLAEVLPVIMLDGDDRVEKPEGICAEAVSPEHPVVNGFSDYPVFLGYNQAVARDDADVVLTINNDPLLVFGEYQQGKTACFMSDCSPHWGTQQFMSWPFYTDLWVNTLQFIARK	not failed
MPTTSRPALDVKGGTSPAKEDANQEMSSVAYSNLAVKDRKAVAILHYPGVASNGTKASGAPTSSSGSPIGSPTTTPPTKPPSFNLHPAPHLLASMQLQKLNSQYQGMAAATPGQPGEAGPLQNWDFGAQAGGAESLSPSAGAQSPAIIDSDPVDEEVLMSLVVELGLDRANELPELWLGQNEFDFTADFPSSC	failed
MGELIYGEVKKQTKDGFIIDLGDNAEAYLAREEMIAKEILRPKQRMNAILYSVNREGRGAQLLLSRARPEMLMALMKKEIPLEHHHHHH	failed
MSSSTSQDFVSRPVIKKVFAKLQKEGDGAVVRRGISRSEQKLLDPFLMLDEFSVSPPAGFPDHPHRGITHQDFKGHKGTIYAGDVQWMTAGRGIIHSEMPEEEVNKEPNYQELSHSDIPKAEQNGVEVKVIAGESMGIQSPVYTRTPTMFLDFTLQPGAQIHQNVPESWNAFAYILESGEGGGVFSSSNSSPIPAHSVVVFGPGNDGVSVWNKSSSKQLRFVLIAGEPIGEPVVQYGPFVMNTQAEIDMTIEDYHYGKNGFEMAKYWRSQ	failed
MRKRIEWIDIAKGSAILAVVIGHTLGPYNGQFFGSLIFAFHMPIFFMLSGYLYRSRPARQECQRGIINLLLPYLATAVVLLVVSAIARLLPNPLLNAYFPSWRQGLIATAYGAGSAVFNPWHWQVQPIGAVWFLLSMFIALQLFNGVMLLTARRHQRWRQAIVRGGVFAIFAILGGWLGHAAYLPWAVNAALLAQLFLYAGYLVKQTALLSRISSAWYLLFTFMWLVSAFQGYFALTVPTSPNLLISVMGGVAGSLCIIRVSDWLSHYPNARPIKWLKRYGQLSLVVLCFHLIDLNVIGIEGWLTNHLITHMGPLVTTIIAISYRIGFVTVAMLAIPHLPGIRACFLPRQYLFRRLQRR	failed
MTDPEKLTALKKAYAETILNTAKEAAARVMITERKARGYQQELASVRDEALRACLRLKQIYDSKVKEAEMISLQKQQKIEELEAQLGEAEDIVGELRTELRESRYLLEKLANGCQTNLSKEEKAPNEAVSLEVREDSSNHERSVVASVIKPHMSDRDLSINRCSYKENKDPCLYTLPSILSRCREAEVVERNTINGDCADVESLTEARKEEAKENDIELSTTPLSPSEKQCIKFSYKRKHNKDGSNSPEGGGSSSQDDDDDDESRSRRHKTGEKDNAYLDSFTSTEPSRDSRRVAQVARQVSESR	failed
MKAIRRFTVRPVLPDALHPLSDLARNLRWSWHAETRELFQSVDPERWAASDGDPVRLLGSVPHARLAELAEDRRFLRRLGAAADDLTDYVTGDRWYQSQAEAPSRAAELPAAIAYFSPEFGVTAALPQYSGGLGILAGDHLKAASDLGVPLIGVGLLYRHGYFRQSLSRDGWQQEHYPVLDPHELPVVPLREDDGALAQVSLALPGGRRLQARIWLAQVGRVPLLMLDSDVEENDHGERGVTDRLYGGGSEHRLLQEMLLGIGGVRAVRTYCRLTGHAEPEVFHTNEGHAGFLGLERIAELCDTGLDFDAGLESVRAGTVFTTHTPVPAGIDRFDRELVARHFGPDAELPRIDVERILGLGMETYPGGEPNLFNMAVMGLRLGQRANGVSLLHGQVSREMFSGLWPGFDPDEVPITSVTNGVHAPTWVAPEVFRLGARQIGAQRTEDAMTVGGSERWDAVAEIPDQDIWDLRRVLREQLVTEVRERLRASWRQRGAGTAELGWIDGVLDPDVLTIGFARRVPSYKRLTLMLRDRDRLMDLLLHPERPVQIVVAGKAHPADDGGKRLVQELVRFADDPRVRHRIVFLPDYGMAMAQKLYPGCDIWLNNPLRPLEACGTSGMKAALNGCLNLSVLDGWWDEWFQPDFGWAIPTADGTATDEDRRDDLEATALYDLLEGRVAPRFYERGQAGLPDRWIEMVRQTLTHLGPKVLAGRMVREYVERLYTPAALAHRALTPEPARELATWKSRVRAAWPRVTVDHVETSVATTTAELGTTLSLRVRVGLGDLDPDDVEVQAVAGRVDGQDRITDATAVPLKPVGGPDLEGRRVYEGPLSLDRTGPFGYTVRILPTHRLLATSAELGLVAVPSEDVGEGAGVLLR	failed
MSIFNKDALSSFFGLSGEEDDYYDNYEEYEERKAVNEPPRRAARPKPQRPVQQQESYSQPAYTQQSEPVVEKPSARYRSAEAHQERDTQQAAYTEKKVVSMRSSNQSATTNTRRAQESTANAKTHKITIIEPRVYSEAMSIAKHLFAEEAVLVNFTLVEEDQARRIVDFLTGTVYALDGDIQRVGNEIFLCTPANMEIDSATAQSLANKQFFDFLEHHHHHH	failed
MALPPYDPNFTLAFSYGRRDNVFENDPEHDESASAAIVAVELISSARLALKLDSVRTEYSAQYLVDKAGSRNLRRRRKLTVKDCLNFALKKGGIPRAEDWPPLGSESKTPSSYEPALVSMKGEVIEPKDMDEVPELLVHQSAVGAKLHVFTPHIELQQDVSAIAYARYVGLRDGIVVGTEKIQGKSMAIVKVWYKKKFVVVKVALSRMFYLAGVGPSVLLVDFCVPRLSID	failed
MSRPDDIDVRPIAEAETADWIRALNTGFLRSPEVSEREVADRSSYLVPARTLGAFDNGRCVATFRSFPQELTAVGGASVPADAISNVTVTATHRRRGLLTRMMAQDLAAAKERGDVVATLIAAEYPIYGRYGFGAATHSTEWTID	failed
KMMVLYNETSGSSESKEIAERFKKAAEARGEAVILQPSNPDIDPEEMRKNAKENQVGVLVVIGGDGTIHHAVQNFKDTIRDYQIGIIPGGTVNNFARVLSIPLKEEDAFETILAGQTTPVDFGMVNQD	not failed
MTGKKRSASSSRWLQEHFSDKYVQQAQKKGLRSRAWFKLDEIQQSDKLFKPGMTVVDLGAAPGGWSQYVVTQIGGKGRIIACDLLPMDPIVGVDFLQGDFRDELVMKALLERVGDSKVQVVMSDMAPNMSGTPAVDIPRAMYLVELALEMCRDVLAPGGSFVVKVFQGEGFDEYLREIRSLFTKVKVRKPDSSRARSREVYIVATGRKP	not failed
MRKLTALFVASTLALGAANLAHAADTTTAAPADAKPMMHHKGKFGPHQDMMFKDLNLTDAQKQQIREIMKGQRDQMKRPPLEERRAMHDIIASDTFDKVKAEAQIAKMEEQRKANMLAHMETQNKIYNILTPEQKKQFNANFEKRLTERPAAKGKMPATAELEHHHHHH	not failed
